US20190106487A1 (Sanofi, published 2019)

T1: mIL1RAcP-Fc (murine, UniProt Q61730 21-359)
T1 construct: also called P013_04; P013-04
T1 sequence (looked up): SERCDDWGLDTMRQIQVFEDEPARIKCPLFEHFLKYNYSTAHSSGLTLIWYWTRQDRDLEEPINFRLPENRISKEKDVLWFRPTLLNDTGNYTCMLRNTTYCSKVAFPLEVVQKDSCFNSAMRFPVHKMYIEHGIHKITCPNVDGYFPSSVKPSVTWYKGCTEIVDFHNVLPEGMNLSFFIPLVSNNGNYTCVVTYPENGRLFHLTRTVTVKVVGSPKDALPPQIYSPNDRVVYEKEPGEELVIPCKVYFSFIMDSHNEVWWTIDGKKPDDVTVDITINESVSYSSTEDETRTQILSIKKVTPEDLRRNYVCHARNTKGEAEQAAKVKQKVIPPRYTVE

T2: rhIL-1RAcP/Fc Chimera (human, UniProt Q9NPH3 21-359)
T2 construct: also called P013_03; P013-03
T2 sequence (looked up): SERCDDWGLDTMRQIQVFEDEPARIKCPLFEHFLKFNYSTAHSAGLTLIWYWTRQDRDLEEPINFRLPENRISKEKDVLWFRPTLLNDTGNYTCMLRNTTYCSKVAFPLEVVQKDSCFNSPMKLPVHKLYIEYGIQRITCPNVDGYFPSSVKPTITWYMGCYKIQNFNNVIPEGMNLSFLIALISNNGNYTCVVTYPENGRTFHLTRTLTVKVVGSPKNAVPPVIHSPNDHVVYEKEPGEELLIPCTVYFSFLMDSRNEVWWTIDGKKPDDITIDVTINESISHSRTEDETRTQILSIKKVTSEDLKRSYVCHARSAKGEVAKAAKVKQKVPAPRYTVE

T3: human IL-1RAcP on 293T/17-FR cells (human, UniProt Q9NPH3 21-570)
T3 sequence (looked up): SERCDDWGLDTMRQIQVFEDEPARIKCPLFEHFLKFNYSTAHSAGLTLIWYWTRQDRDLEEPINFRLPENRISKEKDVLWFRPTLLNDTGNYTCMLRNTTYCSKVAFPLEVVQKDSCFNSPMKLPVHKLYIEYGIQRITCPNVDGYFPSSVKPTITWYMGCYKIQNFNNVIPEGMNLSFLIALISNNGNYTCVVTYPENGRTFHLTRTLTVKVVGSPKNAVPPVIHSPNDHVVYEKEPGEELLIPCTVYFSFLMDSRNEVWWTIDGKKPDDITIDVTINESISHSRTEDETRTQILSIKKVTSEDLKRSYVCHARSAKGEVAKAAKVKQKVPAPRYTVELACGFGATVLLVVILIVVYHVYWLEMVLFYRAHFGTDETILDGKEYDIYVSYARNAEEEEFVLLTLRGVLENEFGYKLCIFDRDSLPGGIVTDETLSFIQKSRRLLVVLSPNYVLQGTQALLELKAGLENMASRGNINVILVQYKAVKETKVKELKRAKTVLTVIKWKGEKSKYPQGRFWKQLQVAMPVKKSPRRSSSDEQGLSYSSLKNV


Experiments:
mIL1RAcP-Fc = molecular target: T1, mIL1RAcP-Fc; test: ELISA, primary supernatant, coated mu-IL-1RAcP-Fc
rhIL-1RAcP/Fc Chimera [1] = molecular target: T2, rhIL-1RAcP/Fc Chimera; test: ELISA, primary supernatant, coated hu-IL-1RAcP-Fc
Text: Microtiter plates were coated IL-1RACP and/or IL12Rβ1 protein (recombinant Fc chimeric conjugates of human IL-1RACP or IL12Rβ1). After a blocking process, specific antibodies from B-cell supernatants bind to the targets and are then detected by a POD-labeled anti-rabbit IgG antibody. The IL12Rβ1 binding was used as a counterscreen. IL-1RACP protein was tagged with a linker, huFc and His like the IL12Rβ1 protein. Antibodies which bind to the tag were positive in both assays, whereas antigen specific antibodies just bound to IL-1RACP and not to IL12Rβ1.
12.5 μL 0.5 μg/mL IL-1RACP protein in PBS was transferred to a microtiter plate, incubated and washed 3× with Wash Buffer. 90 μL Block Buffer was added to each well, incubated and washed. 12.5 μl Standard Antibody (rabbit mAb against IL-1RAcP, anti IL12Rbeta1 antibody: IL-12Rbeta1 antibody; GeneTex; Cat. No. GTX103917) or sample diluted in ELISA buffer was added, incubated and washed. 12.5 μl 1:5000 POD-Antibody (Anti-rabbit IgG, peroxidase-linked species-specific Fab2 fragment (from donkey) (ECL); assay dilution: 1:5000) in Elisa Buffer was added, incubated and washed. 15 μl TMB was added and 15 μl HCl was added after sufficient development. Absorbance (Optical Density O.D.) was read at 450 nm/620 nm.

rhIL-1RAcP/Fc Chimera [2] = molecular target: T2, rhIL-1RAcP/Fc Chimera; test: ELISA, recombinant purified mAb
[3] = molecular target: T3, human IL-1RAcP on 293T/17-FR cells; test: cell-based or functional assay

Binder | mu-IL1RaP ELISA (OD) (mIL1RAcP-Fc) | hu-IL1RaP ELISA (OD) (rhIL-1RAcP/Fc Chimera [1]) | EC50 (rhIL-1RAcP/Fc Chimera [2]) [µg/mL] | functional reporter gene assay (% inhibition), 0.04 µg/mL mAb [3] [%] | functional reporter gene assay (% inhibition), 0.2 µg/mL mAb [3] [%] | functional reporter gene assay (% inhibition), 1 µg/mL mAb [3] [%] | functional reporter gene assay (% inhibition), 5 µg/mL mAb [3] [%] | primary supernatant functional assay (% inh.), NF-kB luciferase reporter [3] [%]
P013.S.01.B.A03 (antibody, V domains shown, rabbit monoclonal antibody; also called P013.A.00088.A07) VH: QEQLEESGGDLVQPEGSLTVTCTASGFSFSFGYYMCWVRQAPGKGLEWIACIYGDSSDTLYANWAKGRFTVSKTSSTTVTLQMTSLTAADTATYFCARYPGGSYYNLWGPGTRVTVSS VL: ALVMTQTPASVEAAVGGTVTIKCQASQTISINLAWYQQKPGQRPKLLIYYASTLASGVPSRFSGSGSGTEFTLTISGVQSDDAATYYCQQGYTEDNIDNTFGGGTEVVVK | 0 | 3.3 | 0.225 | 77 | 94 | 98 | 99 | 95
P013.S.01.B.F04 (antibody, V domains shown, rabbit monoclonal antibody; also called P013.A.00133.A12) VH: LEQSGGGAEGGLVKPGGSLELCCKASGFSLSTSYWRCWVRQAPGKGLEWIGCIYAGSSDATYYANWVNGRFTLSRDIDQSTGCLQLNSLTAADTAMYYCASGVGFGYFNLWGQGTLVTVSS VL: ALVMTQTPSPVSAAVGGTVTINCQASEDIYSNLAWFQQKPGQPPKLLIYDASTLASGVPSRFSGSGSGTEFTLTISGLQSDDAATYYCLGVYTHISADNAFGGGTEVVVK | 0.3 | 3.6 | 0.046 | 38 | 58 | 95 | 96 | 97
P013.S.02.B.D04 (antibody, V domains shown, rabbit monoclonal antibody; also called P013.A.00086.A06) VH: QSLEESGGDLVQPGGSLTLTCKASGFSFSASYWICWVRQAPGKGLEWIGCIYIGGGGRYYASWAKGRFTISKTSSTTVTLQMTSLTAADTATYFCARDPVTSGSDYVYDLWGPGTLVTVAS VL: AYDMTQTPASVEVAVGGTVTIKCQASESISTWLAWYQQKPGQPPNLLIYRASTLASGVPSRFYGSGYGTEFTLTISGVESADAATYYCQQGYTVNNIDNVFGGGTEVVVK | 0 | 3.6 | – | 4 | 19 | 47 | 87 | 88
P013.S.01.B.B05 (antibody, V domains shown, rabbit monoclonal antibody; also called P013.A.00030.D07) VH: QSLEESGGRLVTPGTPLTLTCTASGFSLSSYYMSWVRQAPGKGLEWVGIISGSASTYYATWAKGRFTISKTSTTVDLKIASPTTEDTATYFCARTHYAAVAGYGYASRLDLWGQGTLVTVSS VL: AIEMTQSPPSLSASVGETVRIRCLASEDIYSGISWYQQKPGKPPTLLIYAASNLESGVPPRFSGSGSGTDYTLTIGGVQAEDAATYYCLGGYSYSNTGPTFGAGTKVEIK | 0.1 | 3.3 | – | 52 | 81 | 93 | 96 | 85
P013.S.02.B.G01 (antibody, V domains shown, rabbit monoclonal antibody; also called P013.A.00015.G07) VH: QSVEESGGRLVTPGGSLTLTCKVSGFSLSDYDIYWVRQAPGKGLEWIGVIDIENSVYYPTWAKGRFTISKTSTTVDLKITSPTTEDTATYFCARGDYIMTLDLWGQGTLVTVSS VL: AAVLTQTPSPVSAAVGGTVTISCQASQSVYKNNRLAWYQQKPGQPPKLLIYLASTLASGVPSRFKGSGSGTQFTLTISDLESDDAATYYCAGGYSTISENAFGGGTEVVVK | 0.4 | 2.2 | – | 1 | 1 | 10 | -5 | -36
P013.S.02.B.G03 (antibody, V domains shown, rabbit monoclonal antibody; also called P013.A.00014.D07) VH: QSVEESGGRLVTPGTPLTLTCTVSGFSLSSYGMIWVRQAPGEGLEWIGFIGRGGATWYASWVKGRFTISKTSTTVDLKITSPTASDTATYFCARDGDSSDYYAFNLWGQGTLVTVSS VL: DVVMTQTPASVSEPVGGTVTIKCQASQNIGSNLAWYQQRSGQPPKLLIYGASTLASGVPSRFSGSGSGTEFTLTISGVQSADAATYFCQCSGYDITGVFPFGGGSEVVVK | 1.1 | 1.4 | – | 6 | 0 | 5 | 17 | -39
P013.S.02.B.H02 (antibody, V domains shown, rabbit monoclonal antibody; also called P013.A.00015.B10) VH: QSLEESGGRLVTPGTPLTLTCTVSGFSLSSCAMIWVRQAPGKGLEWIGFIGRGGSTWYASWVNGRFTISKTSTTVDLKITSPTTEDTATYFCARDGDFSDYYTFNLWGQGTLVTVSS VL: DVVMTQTPASVSEPVGGTVTIKCQASQNIGSNLAWYQQKPGQPPKLLIYGASTLASGVPSRFSGSGSGTEFTLTISGVQSADATTYYCQCSGYDTTGVFPFGGGSEVVVR | 0.8 | 3 | – | 25 | -2 | 28 | 28 | 36
P013.S.01.B.A04 (antibody, V domains shown, rabbit monoclonal antibody; also called P013.A.00085.C03) VH: QEQLEESGGGLVKPGGTLTLTCKASGIDFSSYYYMCWVRQAPGKGLEWIACIFIGYGDVTWYASWAKGRFTISKASSTTVTLQMTSLTAADTATYFCARALGSSGYRVNLWGPGTLVTVSS VL: ALVMTQTPSSVSAAVGGTVTINCQASENIYSSLAWYQQKPGQPPKLLIYDASDLASGVPSRFKGSGSGKEFTLTISDLESDDAATYYCQQGYYSGGTDNDVFGGGTEVVVK | 0 | 3.4 | 0.027 | 47 | 89 | 97 | 98 | 74
P013.S.01.B.F05 (antibody, V domains shown, rabbit monoclonal antibody; also called P013.A.00087.C06) VH: QSLEESGGRLVTPGGSLTLTCTVSGIDLSNYAMSWVRQAPGKGLEWIGSVISGGSTYYATWAKGRFTISKTSTTVDLKMTSLTTEDTATYFCARGCPGYNGDKYALDLWGPGTVVTVSS VL: AFEMTQTPSSVSEPVGGTVTIKCQASQSIHNYLSWYQQKPGQRPKLLIYRASTLASGVPSRFKGSGSGTEFTLTISGVESADAATYYCQQGATSYDIDNAFGGGTEVVVK | 1.2 | 3.6 | 0.052 | 44 | 54 | 70 | 80 | 89
